{"source": "paper PMC8181454", "molecular_target": "recombinant HPV16 E6 protein (human papillomavirus type 16) (UniProt P03126)", "sequence (P03126 whole entry)": "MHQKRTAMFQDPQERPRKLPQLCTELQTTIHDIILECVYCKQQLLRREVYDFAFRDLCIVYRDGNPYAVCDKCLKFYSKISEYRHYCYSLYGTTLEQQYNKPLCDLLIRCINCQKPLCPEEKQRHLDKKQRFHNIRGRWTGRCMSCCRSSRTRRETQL", "assay": "SPR"}
{"substance": "ZWT affibody (original affibody scaffold molecule, wild-type Z domain) (designed binder)", "values": [{"measurement": "koff", "result": 0.000886, "unit": "s⁻¹"}]}
